Measurements reported in publication PMC10922747 (Cell, 2024).

B1: mouse PNMA2 (mPNMA2) protein (full length) (natural protein, UniProt Q8BHK0 1-365, looked up)
chain: MAVALLEEWCKIMGVDVQKSLLVVDIPVDCGEPEIQTVLQEALKCVGSYRLLGKIFQKQDNTSVVLVELMEDTDMSVVPSEVQGKGGVWKVIFKTPNQDTEFLQRLNLFLEKEGQTVAGMFRALKHEGVSPATPPCTSPELLAHLTGQAMVHGQRPLLPVKYCKMRIFSGSTAAAPEEEPFEVWLEQATEIAKEWPIPEAEKKRWVAESLRGPALDLMHIVQADNPSISVGECLEAFKQVFGSTESRRTSQVKYLRTYQQEGEKISAYVLRLETLLRRAVEKRAIPRNIADQVRLEQVMAGANLGNVLWCRLQELKDQGPLPTFLQLMKVIREEEEEEDAYFEQESREEPGEREGSGCWNNSRNN
B2: human PNMA2 (hPNMA2) protein (full length) (natural protein, UniProt Q9UL42 1-364, looked up)
chain: MALALLEDWCRIMSVDEQKSLMVTGIPADFEEAEIQEVLQETLKSLGRYRLLGKIFRKQENANAVLLELLEDTDVSAIPSEVQGKGGVWKVIFKTPNQDTEFLERLNLFLEKEGQTVSGMFRALGQEGVSPATVPCISPELLAHLLGQAMAHAPQPLLPMRYRKLRVFSGSAVPAPEEESFEVWLEQATEIVKEWPVTEAEKKRWLAESLRGPALDLMHIVQADNPSISVEECLEAFKQVFGSLESRRTAQVRYLKTYQEEGEKVSAYVLRLETLLRRAVEKRAIPRRIADQVRLEQVMAGATLNQMLWCRLRELKDQGPPPSFLELMKVIREEEEEEASFENESIEEPEERDGYGRWNHEGDD

How the values were obtained:
cryo-EM structure = target: the molecule itself; assay: cryo-EM structure
negative-stain EM = target: the molecule itself; assay: negative-stain EM

Protein	stoichiometry N (cryo-EM structure)	binding result (negative-stain EM)
B1	60	–
B2	–	binds
